Experimental data from patent US9951111B2, “Type I interferon mimetics as therapeutics for cancer, viral infections, and multiple sclerosis” (priority 2011, dated 2018).
Ends that are not written are not given here.

Experiments:
[1] = tested on: vesicular stomatitis virus (VSV); format: cell-based
[2] = tested on: vaccinia virus; format: in vivo, mice (C57BL/6); details: i.n. infection; peptides 200 μg or murine IFNα1 2,000 U i.p. for six consecutive days; FIG. 12
[3] = Body weight of mice under IFNα1 or lipo-peptide (FIG. 13); details: 5×10^3 U/mouse i.p. on alternate days (peptide 100 μg), day 11 difference p<0.05
[4] = tested on: experimental allergic encephalomyelitis (EAE) in SJL/J mice; experiment: Relapsing/remitting EAE in SJL/J mice immunized with MBP; format: in vivo; details: 15 μg/mouse i.p. every other day from day 12 post-immunization with MBP; FIG. 6C
[5] = tested on: lymphocytes; experiment: IFN toxicity in vivo: lymphocyte count on blood smears (Table 4); details: day 11, i.p. alternate days for ten days, IFN mimetics 2 × 10^3 U in 200 μg per mouse, IFNβ 10^3 U/mouse; for % Reduction (lymphocytes): versus PBS
[6] = IFN toxicity in vivo: body weight (FIG. 7); details: 2,000 U per mouse of IFN mimetic I.P. on alternate days
[7] = tested on: EMC virus; format: cell-based, encephalomyocarditis (EMC) virus
[8] = tested on: vaccinia virus; format: cell-based

Molecule: lipo-IFNα1(152-189) (LYLTEKKYSPCAWEVVRAEIMRSLSLSTNLQERLRRKE; also: lipid attached; listed as Homo sapiens)
- antiviral activity against vesicular stomatitis virus (VSV) [1]: showed antiviral activity
- protection against vaccinia virus lethal infection (survival) [2]: inhibited vaccinia virus lethal infection of mice
- weight loss [3]: not seen

Molecule: lipo-IFNβ(150-187) (ILHYLKAKEYSHCAWTIVRVEILRNFYFINRLTGYLRN; also: lipidated; UniProt P01574 150-187, looked up, fragment)
- antiviral activity against vesicular stomatitis virus (VSV) [1]: showed antiviral activity

Molecule: lipo-IFNτ(156-195) (EKGYSDCAWEIVRVEMMRALTSSTTLQKRLTKTGGDLNSP; also: lipid attached)
- antiviral activity against vesicular stomatitis virus (VSV) [1]: showed antiviral activity

B1: IFNα1(69-189)R9 (protein)
chain: RRRRRRRRRNQFQKAPAISVLHELIQQIFNLFTTKDSSAAWDEDLLDKFCTELYQQLNDLEACVMQEERVGETPLMNADSILAVKKYFRRITLYLTEKKYSPCAWEVVRAEIMRSLSLSTNLQERLRRKE
- therapeutic efficacy in EAE (mean daily severity of disease) [4]: essentially complete therapeutic efficacy
- Lymphocytes (%) [5]: 75 ± 3%
- % Reduction (lymphocytes) [5]: 4%
- body weight change [6]: gained weight
- antiviral activity against EMC virus [7]: possessed antiviral activity

B2: IFNα1 (protein, UniProt P01562 24-189, looked up)
Interferon alpha-1/13: CDLPETHSLDNRRTLMLLAQMSRISPSSCLMDRHDFGFPQEEFDGNQFQKAPAISVLHELIQQIFNLFTTKDSSAAWDEDLLDKFCTELYQQLNDLEACVMQEERVGETPLMNADSILAVKKYFRRITLYLTEKKYSPCAWEVVRAEIMRSLSLSTNLQERLRRKE
- protection against vaccinia virus (VV) infection [8]: did not protect
- protection against vaccinia virus lethal infection (survival) [2]: ineffective
- weight loss [3]: weight loss seen

B3: IFNβ(100-187)R9 (protein)
chain: RRRRRRRRRWNETIVENLLANVYHQINHLKTVLEEKLEKEDFTRGKLMSSLHLKRYYGRILHYLKAKEYSHCAWTIVRVEILRNFYFINRLTGYLRN
- Lymphocytes (%) [5]: 72 ± 5%
- % Reduction (lymphocytes) [5]: 9%
- body weight change [6]: gained weight
- antiviral activity against EMC virus [7]: possessed antiviral activity

B4: IFNα1(69-189) (protein, listed as Homo sapiens)
chain: NQFQKAPAISVLHELIQQIFNLFTTKDSSAAWDEDLLDKFCTELYQQLNDLEACVMQEERVGETPLMNADSILAVKKYFRRITLYLTEKKYSPCAWEVVRAEIMRSLSLSTNLQERLRRKE
- therapeutic efficacy in EAE (mean daily severity of disease) [4]: developed paraplegia
